Measurements reported in PMC1543650.

Legend:
[1] = biological target: Fc-gp120 ΔV3 (HIV-1 JR-CSF); assay: flow cytometry on cells
[2] = biological target: Fc-gp120 ΔV1V2V3 (HIV-1 JR-CSF); assay: flow cytometry on cells
[3] = biological target: Fc-gp120 WT (human IgG1 Fc fused N-terminal to full-length wild-type gp120 of HIV-1 JR-CSF) (HIV-1 JR-CSF); assay: flow cytometry on cells
[4] = biological target: Fc-gp120 ΔV1V2 (HIV-1 JR-CSF); assay: flow cytometry on cells
[5] = biological target: Fc-DC-SIGN (entire ectodomain of DC-SIGN fused in-frame with the Fc region of IgG1) (UniProt Q9NNX6); assay: ELISA
Sequence of UniProt Q9NNX6 (Q9NNX6 59-404): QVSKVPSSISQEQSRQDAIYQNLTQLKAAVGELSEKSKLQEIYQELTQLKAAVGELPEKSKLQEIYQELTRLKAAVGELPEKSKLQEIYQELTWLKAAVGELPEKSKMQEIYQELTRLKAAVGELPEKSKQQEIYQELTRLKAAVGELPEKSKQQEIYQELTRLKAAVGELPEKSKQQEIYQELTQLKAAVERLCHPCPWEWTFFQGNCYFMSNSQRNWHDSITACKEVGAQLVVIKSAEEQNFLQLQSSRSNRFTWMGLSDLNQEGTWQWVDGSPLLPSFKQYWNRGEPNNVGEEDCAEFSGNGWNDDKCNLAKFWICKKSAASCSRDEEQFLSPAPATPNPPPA

Substance	% inhibition of Fc-gp120 binding to CEM cells at 10 μg/ml sCD4 [1] [%]	% inhibition of Fc-gp120 binding to CEM cells at 10 μg/ml sCD4 [2] [%]	% inhibition of Fc-gp120 binding to CEM cells at 10 μg/ml sCD4 [3] [%]	% inhibition of Fc-gp120 binding to CEM cells at 10 μg/ml sCD4 [4] [%]	IC50 [5] [nM]
4-domain recombinant soluble CD4 (domain or fragment)	100	50	100	100	–
biotinylated Fc-gp120 (Fc fusion)	–	–	–	–	0.017
